For this assay, the target named is mCeruleanC-α1C,77 (human Cav1.2 calcium channel α1C,77 subunit labeled at the C-tail with mCerulean) (human). In words: FRET or BRET; two-color FRET (mCerulean/tagRFP) epifluorescence microscopy in COS1 cells, control for cascade transfer: Rβ3 and α1CC without Vα1C. (BRET reads energy transfer from a luciferase to a nearby fluorophore.)

For one substance, FRET efficiency results are on record in article PMC2688388.

mCeruleanC-α1C,77 (human Cav1.2 calcium channel α1C,77 subunit labeled at the C-tail with mCerulean) (human), sequence (Q13936 whole entry): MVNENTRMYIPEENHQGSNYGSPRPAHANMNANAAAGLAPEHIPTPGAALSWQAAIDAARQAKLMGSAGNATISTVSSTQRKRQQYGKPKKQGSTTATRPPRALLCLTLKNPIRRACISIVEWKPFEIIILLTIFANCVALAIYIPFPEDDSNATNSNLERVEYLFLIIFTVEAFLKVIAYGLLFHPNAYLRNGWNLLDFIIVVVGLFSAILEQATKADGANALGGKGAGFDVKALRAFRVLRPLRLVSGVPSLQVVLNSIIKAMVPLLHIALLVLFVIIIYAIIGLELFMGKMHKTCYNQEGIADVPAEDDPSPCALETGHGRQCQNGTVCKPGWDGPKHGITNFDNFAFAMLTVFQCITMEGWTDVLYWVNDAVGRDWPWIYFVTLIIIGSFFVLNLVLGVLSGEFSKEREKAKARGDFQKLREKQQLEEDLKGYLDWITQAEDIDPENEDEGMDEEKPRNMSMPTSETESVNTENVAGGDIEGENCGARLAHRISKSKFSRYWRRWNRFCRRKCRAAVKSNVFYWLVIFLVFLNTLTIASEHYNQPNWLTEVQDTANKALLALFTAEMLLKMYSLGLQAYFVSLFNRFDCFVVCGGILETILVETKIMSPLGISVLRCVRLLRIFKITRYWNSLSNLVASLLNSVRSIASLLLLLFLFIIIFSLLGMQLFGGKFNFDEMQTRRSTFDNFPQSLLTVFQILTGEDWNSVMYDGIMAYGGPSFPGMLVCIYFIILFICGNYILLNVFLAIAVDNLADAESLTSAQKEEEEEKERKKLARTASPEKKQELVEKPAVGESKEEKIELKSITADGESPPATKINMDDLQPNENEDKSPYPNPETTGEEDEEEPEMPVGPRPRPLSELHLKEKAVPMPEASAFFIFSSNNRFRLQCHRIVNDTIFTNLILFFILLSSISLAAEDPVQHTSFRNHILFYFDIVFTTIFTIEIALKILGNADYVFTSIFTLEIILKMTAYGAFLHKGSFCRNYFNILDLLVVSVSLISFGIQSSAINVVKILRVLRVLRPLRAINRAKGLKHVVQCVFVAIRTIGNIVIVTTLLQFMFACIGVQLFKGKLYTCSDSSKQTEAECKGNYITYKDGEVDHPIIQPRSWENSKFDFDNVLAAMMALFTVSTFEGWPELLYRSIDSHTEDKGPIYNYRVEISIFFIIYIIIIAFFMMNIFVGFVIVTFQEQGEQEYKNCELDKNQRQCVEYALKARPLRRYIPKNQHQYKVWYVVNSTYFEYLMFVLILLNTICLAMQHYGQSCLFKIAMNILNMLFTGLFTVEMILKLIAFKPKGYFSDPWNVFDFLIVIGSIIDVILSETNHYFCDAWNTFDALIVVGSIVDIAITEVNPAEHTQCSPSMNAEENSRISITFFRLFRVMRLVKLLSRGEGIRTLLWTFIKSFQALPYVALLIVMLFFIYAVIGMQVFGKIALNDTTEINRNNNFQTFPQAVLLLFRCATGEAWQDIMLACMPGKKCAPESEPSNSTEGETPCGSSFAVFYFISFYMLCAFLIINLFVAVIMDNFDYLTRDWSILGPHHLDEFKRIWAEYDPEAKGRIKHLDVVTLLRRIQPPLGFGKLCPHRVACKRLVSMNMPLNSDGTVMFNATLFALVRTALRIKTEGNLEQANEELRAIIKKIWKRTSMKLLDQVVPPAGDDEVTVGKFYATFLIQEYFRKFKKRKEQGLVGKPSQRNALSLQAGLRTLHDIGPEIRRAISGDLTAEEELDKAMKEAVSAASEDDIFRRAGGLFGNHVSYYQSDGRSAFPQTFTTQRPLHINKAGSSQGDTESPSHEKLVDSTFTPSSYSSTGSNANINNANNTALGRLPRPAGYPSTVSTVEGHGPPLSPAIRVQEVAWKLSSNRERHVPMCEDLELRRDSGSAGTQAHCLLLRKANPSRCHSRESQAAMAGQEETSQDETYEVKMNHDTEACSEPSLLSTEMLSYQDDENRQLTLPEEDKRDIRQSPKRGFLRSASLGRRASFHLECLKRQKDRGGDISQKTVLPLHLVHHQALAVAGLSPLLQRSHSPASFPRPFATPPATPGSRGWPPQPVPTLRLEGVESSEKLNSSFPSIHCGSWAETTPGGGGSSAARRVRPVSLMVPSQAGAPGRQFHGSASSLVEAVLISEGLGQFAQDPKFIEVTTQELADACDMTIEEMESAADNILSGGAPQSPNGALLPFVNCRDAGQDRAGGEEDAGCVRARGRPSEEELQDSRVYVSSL

Take “RFP-β3 (human Cavβ3 subunit with tagRFP fused to the N-terminus) (from UniProt P54284 1-484) (natural protein)”: the FRET efficiency stood at 0.05.
